Measured values as given in the DeepSol protein solubility set.

Experiment: soluble on expression in E. coli; label from the status in PepcDB or PDB records

Row | Sequence | soluble on expression in E. coli
1 | MAKVRIYQLAKELGMETQELLELLDQMGVAYKSHASTLEEKDAEAVRELVKEQRGLQEKLAEEERRKSLPRRPPVVVIMGHVDHGKTTLLDYLRKSRIAEKEAGGITQHVGAFEVKTPQGTVVFIDTPGHEAFTTIRQRGAKVADIAVIVIAADDGIMPQTEEAIAHAKAAGAKLIFAINKIDLPQADPEKVKRQLMERGFVPEEYGGDAIVIPISAKTGQGVQDLLEMILLLAELEDYRADPNAEPRGVILESKLDKQAGIIANMLVQEGTFRVGDYVVAGEAYGRIRAMMDADGNQRKEAGPGSAVQVLGFQELPHAGDVVEWVPDLEAAKEIAEERKEERKAREEEEKARRPRTMAELLRAMQEEGRKELNLILRADTQGSLEAIQHILARESTEDVKINILLAQVGAPTESDVLLAQTANAAILAFGVNPPGSVKKKAEEKGVLLKTFRIIYDLVDEVRNMVKGQREPQYKEEVLGQAEVRAIFRLPTGKQVAGCMVTQGRIPRNAEVRVLRDGQVIWQGRIASLKRFKEDVREVAQGYECGIGLDGFDDFREGDVIEAFQMVEVPA | soluble
2 | MGSDKIHHHHHHMGVYHRIRVSRQTTTLPNIILTKKMIAAKDKAPQLTPQEYFIWEEQQLEKHEYINGEVYAMTGGSVNHGRIAIRFTAMFDSHLQNTGCITGNSDIKVNIFGSNNYTYPDASVTCDVRDQTTTQYITYPCLIVEVLSKTTEAYDRGGKFRMYRQNPALIDYLLVSSTSVEIDLYHKNDAGDWLIINYKPGDTIELKSINLNFPIEKVYRGLTLEPENGG | not soluble
3 | MITWADALGFRLVVVDSLGSADQEVVEAEDGEPFERHEMRRLTRPLWTRRKARKLSQGDLALLLGVSRASVQRWEDADKFPRPIALIAWAGRLECSVELDRVTSENDRPQPGREEA | not soluble
4 | MAHHHHHHMWRRAACQAVTSRFFRPAVAASTASSSSALRESCRTGIIIGNPKQGMIDPIHVSWTDIAGSDTTPGARLAAGRVLAMLDMCAARTSQKAIDHQDCLTHERYLTCTVGVTNTMFSSPILHGDAVRLDGRLVCCGSSSMGIYIRFYRQSPSTRTETPAGHSFFTMVAITPDLKAAKVVPAIELTDPLDIELHNHYVKVRKLQEENKKNTAERLKRTLTTEEVQCSINQQKPIHARINSTRVEANRIFFTSCMNNNNTVFGGELMAWMEQHAVHCGRMFTGNRYVFTIGMHSVAFPEPVFATDWVTLEATVIYVRNTTMEVDVVLKAERKDAGTVITNRASFVLINNDDIGRKCAIPIGLELNGATQEELQQFMEARVRYHCSVARRDDFHASNLCTGTTKL | not soluble
5 | FAVSSELSACGRARTYRVEGQLFYGSVEDFMAAFDFREPLERVTIDVSRAHIWDISSVQALDMAVLKFRREGAEVRIVGMNEASETLVDRLALHDRPGALDRLTAH | not soluble
6 | TPQYESTTKMYVLSKQDNNTLTQQDMQTSLSLTKDYAELIKSRTVTEGVIAQLNLDLTHEELLKKMTVDSATDTRILSITVTDADPYEACKIANAIRDVAANHIKNVMDIDAVNVVETANIPDQQSSPSISKN | not soluble
7 | MLKSASSLVRSFIRPQTFRLCSSSSTTQGSPSVSSDDEPVILENNPYTKEPRKSFLCSTGVELDYKNSRLLQQFVSTFSGRVYDRHITGLCDENKKKLIEAIAKSRRAGFMPIFVKDPKYTRDPKLFDPLKPIRPHSFA | not soluble
8 | AKVVCVLYDDPINGYPTSYARDDLPRIDKYPDGQTLPTPKAIDFTPGALLGSVSGELGLRKYLESQGHELVVTSSKDGPDSELEKHLHDAEVIISQPFWPAYLTAERIAKAPKLKLALTAGIGSDHVDLQAAIDNNITVAEVTYCNSNSVAEHVVMMVLGLVRNYIPSHDWARNGGWNIADCVARSYDVEGMHVGTVAAGRIGLRVLRLLAPFDMHLHYTDRHRLPEAVEKELNLTWHATREDMYGACDVVTLNCPLHPETEHMINDETLKLFKRGAYLVNTARGKLCDRDAIVRALESGRLAGYAGDVWFPQPAPNDHPWRTMPHNGMTPHISGTSLSAQTRYAAGTREILECYFEGRPIRDEYLIVQGGGLAGVGAHSYSKGNATGGSEEAAKYEKLDA | soluble
9 | MKVEEILEKALELVIPDEEEVRKGREAEEELRRRLDELGVEYVFVGSYARNTWLKGSLEIDVFLLFPEEFSKEELRERGLEIGKAVLDSYEIRYAEHPYVHGVVKGVEVDVVPCYKLKEPKNIKSAVDRTPFHHKWLEGRIKGKENEVRLLKGFLKANGIYGAEYKVRGFSGYLCELLIVFYGSFLETVKNARRWTRRTVIDVAKGEVRKGEEFFVVDPVDEKRNVAANLSLDNLARFVHLCREFMEAPSLGFFKPKHPLEIEPERLRKIVEERGTAVFAVKFRKPDIVDDNLYPQLERASRKIFEFLERENFMPLRSAFKASEEFCYLLFECQIKEISRVFRRMGPQFEDERNVKKFLSRNRAFRPFIENGRWWAFEMRKFTTPEEGVRSYASTHWHTLGKNVGESIREYFEIISGEKLFKEPVTAELCEMMGVKD | soluble
10 | MNFNQFENQNFFNGNPSDTFKDLGKQVFNYFSTPSFVTNIYETDELYYLEAELAGVNKEDISIDFNNNTLTIQATRSAKYKSEQLILDERNFESLMRQFDFEAVDKQHITASFENGLLTITLPKILEHHHHHH | soluble
11 | MSLANKILTEKDTDQIRFSILASGSSGNATLVETGDQKILIDCGLSGKKMEGLFAQVGRDMNDLDAILITHEHSDHIKGLGVLARKYKLPIYANAKTWKAMDNMIGEVSSDQKFQFDMETVKTFGSMQVESFGVSHDAIEPMFYIFHKGNKKFVMITDTGYVSDRMKGHIAGADAYLFESNHDVEMLRMGRYPWNVKRRILGDEGHVSNEDAAIAMSEVITDQTKRIYLGHLSKDNNMKELARMSVTQTLMAEGIDVGGKLEIFDTDPDNATSIFTEGHHHHHH | not soluble
12 | MERVLITGGAGFIGSHLVDDLQQDYDVYVLDNYRTGKRENIKSLADDHVFELDIREYDAVEQIMKTYQFDYVIHLAALVSVAESVEKPILSQEINVVATLRLLEIIKKYNNHIKRFIFASSAAVYGDLPDLPKSDQSLILPLSPYAIDKYYGERTTLNYCSLYNIPTAVVKFFNVFGPRQDPKSQYSGVISKMFDSFEHNKPFTFFGDGLQTRDFVYVYDVVQSVRLIMEHKDAIGHGYNIGTGTFTNLLEVYRIIGELYGKSVEHEFKEARKGDIKHSYADISNLKALGFVPKYTVETGLKDYFNFEVDNIEEVTAKEVEMS | not soluble
13 | MGSDKIHHHHHHMHSAALLQKVDELPRLPKAIAELLDVVNNEDSTVKAVSEKLSHDPVLSARVLRLANSARFGCSREVGTIDDAVVRLGMQTLRTLVIASAVVGAVPKVEGFDLADFWGNTFEVAIICQELAKRLGTLPEEAFTCGILHSIGELLIVNGDPAVAATISAAVADGADRNLMEKELLGYDNAEIGALLAQSWKFTPHLVKGIQFQNHPKSAEPYSKLAGMLAMAKQIAADWDKIPDDERTSWLAQINILAGIKVDLGGLAEKLAKMHGQGMEMGKQLA | not soluble
14 | MAHHHHHHMEGFPLGLAVIIDPPREKESGAMVEAHAARDNGSAAGSLSNGETNTADTGGDAYSGHSINNREQVPIALHNVCPTRFLWSRYEENGGMLLHMPRSKVCREHRKGLCRFGNECSFLHVCRQMPIGSGDEELLSHSRTPLRHSTVQGSMQDFSHPPSFATASGSLCHHAHSQSYSQANLQHFQGSTVMSQNGSYMDGSLGNSQTGSRPHLSRAPTASESYGGHQPLLRPLGGVQNSHSSVAARGSFSHNPYAEASSFQS | not soluble
15 | MGSDKIHHHHHHMTINFNRIYVIQSLSKANGDELTGQQLFDDVLQYFNTKYGDKDARIFNVDNKKELLHALENIKSHCETDGIKPIIHFEIHGLEDKTGLSLNQEDVNWGDIYVKFIEINAASKWNLFITMGVCFGNYSMLLIRPSLPAPFTGILGSFEELFEWDLYIRYNAFYQELLNSLDFEKALEALHDSNPALPDDYRYINSEQTFKNVYQKYFDTQFSDVKIKERFNLTIAEEKISFTNRNIKRQFYSKFRTNLLNTKKEFFIKDKRKFFMFDVFPGHQYIYCVNWEPNYH | not soluble
16 | MGSDKIHHHHHHMTHRITILCDNTVGPVSGTLGEHGFAALVEWEGGSLLFDTGMGETLLRNAQRLGRNLAAVPRVVISHGHYDHGGGLWPLLRTCGSKTVLAHPGIFAPRYRVKDTGDPLSIGIPFDEAFLRGQGAHFDFNDRFREVGPGLYLTGEVPRTTAFETGDTGLFCDEAGCRPDPISDDQSLVIRTERGLVLLLGCCHAGVVNTARWALECTGETVVHTVIGGTHLGFCGREQLDETVKSLRELGVHKLVGSHCTGFAAAARLMHEFPGRFHPSAVGYTLEV | not soluble
17 | MPPPLPYDAMRSVWTDTAAPAMATAPLAGHADCDVAIVGAGITGLSAALHLAERGLRACVLEARDPGWGASGRNGGQVIPGIKHDPDEILARHGRERGEPLLHMVGTAADTVFDLIDRYGLDLVQAQIRLAAGERLDRVVPADLQPSGHAIELRVYAEDPVRFIPSPGTLAVFELPQGPGVRTETGYHAGNAVSPHYDPMIAKIIVHGADRAQAIARAEQALADTEIAGVKTNLPFLARALAFEPWRQGRLHTGIVARTLAEPAPAALTALEHHHHHH | not soluble
18 | MGHHHHHHSHMFIASKKSYFEAVYRSTVSSHSEEFWKSDDPVYFTQYKKQCNRLPNAYLGTLHSASKYSENFRHYVATFSNSPLDFPQSVFNERNPCEYSVPYLDSALQCSAKTLVGCSVSTTERNEYEVCKEATRCFKDAMSHKVLKVFLSNLSWFLKGHYKSKQAFLEPFQKQLILHSFMFVASIKCPETTTKLFDEFKFLLDMLYFDNTDLLTFLQKSPAFLIPRRHGKTWIVTAIISMLLTSVDDLHIGYVAHQKHVSLAVFLEISNILLAWFPRKNIDIKKENGVILYSHPGKKSSTLMCATCFNKNVSVI | not soluble
19 | MASQNRDPAATSVAAARKGAEPSGGAARGPVGKRLQQELMTLMMSGDKGISAFPESDNLFKWVGTIHGAAGTVYEDLRYKLSLEFPSGYPYNAPTVKFLTPCYHPNVDTQGNISLDILKEKWSALYDVRTILLSIQSLLGEPNIDSPLNTHAAELWKNPTAFKKYLQETYSKQVTSQEP | soluble
20 | MGSLGPKVFKLDQLPGTIGKKAAKGASVKFSESSTQAVIKATYLQVFGRDVYEGQRLKVQEIKLENGEISVRDFVRALAKSDLFRKLYWTPFYVCKAIEYIHRRLLGRPTYGRQENNKYFDIASKKGLYAVVDAILDSLEYTETFGEDTVPYERYLEHHHHHH | soluble
21 | MALATRNLKVIHIKRIENSRSSLIRANHGSKGIIHLILDQAPYHRADKVKEKAKKLVIHLNYLPPYSPNLNPIERLWKVMNEKVRNNRFFNSAKDFRREIERFFTEILPDIGASLGQSINDNFQLEHHHHHH | not soluble
22 | MGSDKIHHHHHHMAPNYMTEKWREDEEYLSYVEDLLATEEVQKLAEYTQHMHSTRLEHSISVSYHSYKLAKRWNGNARATARAGLLHDLFYYDWRTTKFDEGSHAYVHPRIAAKNAEKITELSDLERDIIIKHMWGATIAPPKYKESYIVTFVDKYCAVKEAALPMTTAMKTKWRQYFGQQSI | not soluble
23 | MSNIIARFHKIQVQDGVKVWYREAGAAGNPTILLLHGFPTSSNMFRNLIPLLAGQFHIIAPDLPGFGFTETPENYKFSFDSLCESIGYLLDTLSIEKFAMYIFDYGSPVGFRLALKFPSRITGIVTQNGNAYEEGLDDRFWGPLKEYWKSYQSDPVFVKSLIPYLEDPANVICQYHDGVPAIESVDPAAYTLDIALIQRTGQTDIQLRLFFDYQNNIKLYPAFQKFLRDSKIPVLVAWGANDTIFSVAGAEAYRKDVDNLKVVYYDTGHFALETHVVAIAEEIISMFAEN | soluble
